Experimental data from patent US10428140B2, “Anti-EphA4 antibody” (EISAI R&D MANAGEMENT CO., LTD., priority 2015, dated 2019).
Positions count from the first letter of the chain named. Where “and” joins values, the source holds several entries; their conditions need not be identical. Equal entries are not always repeated. Each block holds one molecule with its values, some of them ahead of it.

Legend:
human EphA4 = biological target: T1, human EphA4 (Homo sapiens, UniProt P54764); assay: Affinity of humanized antibodies by SPR (Biacore T200); type: binding; conditions: human EphA4 extracellular region-SEAP-His; for ka / kd: 1:1 binding model; for Kd: KD=kd/ka
T1 construct: made in house; not restated for the human SEAP-His protein
T1 sequence (P54764 20-547): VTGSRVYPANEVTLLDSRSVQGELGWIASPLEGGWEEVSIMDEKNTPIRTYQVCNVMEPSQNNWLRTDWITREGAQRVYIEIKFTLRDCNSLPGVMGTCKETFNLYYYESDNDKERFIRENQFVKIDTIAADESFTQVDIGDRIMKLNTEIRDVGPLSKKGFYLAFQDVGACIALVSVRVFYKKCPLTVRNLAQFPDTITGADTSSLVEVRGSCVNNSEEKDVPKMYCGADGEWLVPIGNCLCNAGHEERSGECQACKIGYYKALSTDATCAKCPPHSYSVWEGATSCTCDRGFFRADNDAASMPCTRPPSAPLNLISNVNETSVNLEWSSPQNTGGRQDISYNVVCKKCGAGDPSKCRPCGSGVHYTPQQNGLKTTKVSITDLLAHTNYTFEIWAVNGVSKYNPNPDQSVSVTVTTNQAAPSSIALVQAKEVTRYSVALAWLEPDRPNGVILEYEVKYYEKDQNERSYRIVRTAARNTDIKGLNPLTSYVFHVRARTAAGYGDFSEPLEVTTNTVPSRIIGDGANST
How it was run: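 Humanized antibodies captured on protein A chip (antibody A via immobilized rat anti-mouse IgG1) at about 30 to 60 RU in HBS-EP; human EphA4 extracellular region-SEAP-His injected single-cycle at 0.6 to 50 nM, 120 s association, 900 s dissociation. KD = kd/ka from 1:1 binding fits.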

human EphA1 = biological target: T2, human EphA1 (Homo sapiens, UniProt P21709); assay: Selectivity ELISA of humanized antibodies for human Eph receptor; type: binding; conditions: coated protein 1 nM
T2 construct: a protein of the extracellular region of each human Eph receptor fused with the SEAP protein and the His tag; made in house; host or cells: Expi293F cells (culture supernatant)
T2 sequence (P21709 26-547 limits assumed): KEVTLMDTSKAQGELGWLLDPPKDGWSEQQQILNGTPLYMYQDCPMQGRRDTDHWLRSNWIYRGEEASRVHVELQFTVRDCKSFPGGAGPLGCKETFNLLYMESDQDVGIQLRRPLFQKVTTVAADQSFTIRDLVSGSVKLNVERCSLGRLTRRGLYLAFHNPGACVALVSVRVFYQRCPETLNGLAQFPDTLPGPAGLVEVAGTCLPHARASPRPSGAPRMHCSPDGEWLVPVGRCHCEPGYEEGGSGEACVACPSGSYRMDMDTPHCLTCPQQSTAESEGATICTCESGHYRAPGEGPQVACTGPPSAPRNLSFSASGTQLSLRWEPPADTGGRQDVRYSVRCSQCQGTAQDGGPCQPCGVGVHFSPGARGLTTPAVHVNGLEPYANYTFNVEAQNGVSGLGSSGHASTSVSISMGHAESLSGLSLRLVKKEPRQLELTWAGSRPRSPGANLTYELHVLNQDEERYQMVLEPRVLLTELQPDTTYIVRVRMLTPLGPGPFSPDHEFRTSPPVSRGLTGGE
How it was run: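 Extracellular domains of human Eph receptors fused to SEAP-His were expressed in Expi293F cells for 5 days and captured from supernatant (1 nM final) on anti-His-coated plates. Humanized anti-EphA4 antibodies were incubated 1 h at room temperature, then HRP anti-IgG secondary, TMB substrate, and absorbance at 450 nm.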

B1: 153 (antibody, V domains shown)
VH: QVQLVQSGSELKKPGASVKVSCKASGYTFTDYSMHWVRQAPGQGLKWMGWINTETGEPTYAQGFTGRFVFSLDTSVSTAYLQISSLKAEDTAVYYCARIPLYYYGSRYWYFDVWGQGTTVTVSS
VL: DIQMTQSPSSLSASVGDRVTITCRASENIYRNLAWYQQKPGKAPKLLLYAATNLADGVPSRFSGSGSGTDYTLTISSLQSEDFATYYCQHFWGTPWTFGQGTKVEIK
modifications: synthetic humanized antibody heavy chain variable region sequence; synthetic humanized antibody light chain variable region sequence
ka (human EphA4): 290000 M⁻¹ s⁻¹
kd (human EphA4): 0.0006 s⁻¹
Kd (human EphA4): 2.1 nM
hEphA1-SEAP-: absorbance at 450 nm, percentage with respect to hEphA4-SEAP-His as 100% (human EphA1): 6.3%

B2: 154 (antibody, V domains shown)
VH: B1 VH with K46E, Q62D, G63D, T65K
VL: B1 VL
modifications: synthetic humanized antibody heavy chain variable region sequence; synthetic humanized antibody light chain variable region sequence
ka (human EphA4): 390000 M⁻¹ s⁻¹
kd (human EphA4): 0.00065 s⁻¹
Kd (human EphA4): 2.2 nM
hEphA1-SEAP-: absorbance at 450 nm, percentage with respect to hEphA4-SEAP-His as 100% (human EphA1): 6.4%

B8: 145 (antibody, V domains shown)
VH: B1 VH with Q62D, G63D, T65K
VL: B1 VL
modifications: synthetic humanized antibody heavy chain variable region sequence; synthetic humanized antibody light chain variable region sequence
ka (human EphA4): 330000 M⁻¹ s⁻¹
kd (human EphA4): 0.00065 s⁻¹
Kd (human EphA4): 2 nM
hEphA1-SEAP-: absorbance at 450 nm, percentage with respect to hEphA4-SEAP-His as 100% (human EphA1): 6.7%

B10: 158 (antibody, V domains shown)
VH: B1 VH
VL: B1 VL with K45Q, S80P
modifications: synthetic humanized antibody heavy chain variable region sequence; synthetic humanized antibody light chain variable region sequence
ka (human EphA4): 310000 M⁻¹ s⁻¹
kd (human EphA4): 0.00061 s⁻¹ and 0.00056 s⁻¹
Kd (human EphA4): 1.9 nM and 1.6 nM
hEphA1-SEAP-: absorbance at 450 nm, percentage with respect to hEphA4-SEAP-His as 100% (human EphA1): 6.5%

B12: 159 (antibody, V domains shown)
VH: B1 VH with Q62D, G63D, T65K
VL: B1 VL with K45Q, S80P
modifications: synthetic humanized antibody heavy chain variable region sequence; synthetic humanized antibody light chain variable region sequence
ka (human EphA4): 310000 M⁻¹ s⁻¹
kd (human EphA4): 0.00061 s⁻¹
Kd (human EphA4): 2 nM
hEphA1-SEAP-: absorbance at 450 nm, percentage with respect to hEphA4-SEAP-His as 100% (human EphA1): 5.4%

B13: 157 (antibody, V domains shown)
VH: B1 VH with K46E
VL: B1 VL with K45Q, S80P
modifications: synthetic humanized antibody heavy chain variable region sequence; synthetic humanized antibody light chain variable region sequence
ka (human EphA4): 350000 M⁻¹ s⁻¹
kd (human EphA4): 0.00068 s⁻¹
Kd (human EphA4): 2 nM
hEphA1-SEAP-: absorbance at 450 nm, percentage with respect to hEphA4-SEAP-His as 100% (human EphA1): 6.2%

B14: 144 (antibody, V domains shown)
VH: B1 VH with K46E, Q62D, G63D, T65K
VL: B1 VL with K45Q, S80P
modifications: synthetic humanized antibody heavy chain variable region sequence; synthetic humanized antibody light chain variable region sequence
ka (human EphA4): 400000 M⁻¹ s⁻¹
kd (human EphA4): 0.00078 s⁻¹
Kd (human EphA4): 2 nM
hEphA1-SEAP-: absorbance at 450 nm, percentage with respect to hEphA4-SEAP-His as 100% (human EphA1): 5.6%

More lines, in order of falling Kd (human EphA4), values ahead:

ka (human EphA4): 330000 M⁻¹ s⁻¹
kd (human EphA4): 0.00064 s⁻¹
Kd (human EphA4): 1.9 nM
hEphA1-SEAP-: absorbance at 450 nm, percentage with respect to hEphA4-SEAP-His as 100% (human EphA1): 5.5%
B9: 155 (antibody, V domains shown)
VH: B1 VH with V2I, Q62D, G63D, T65K
VL: B1 VL
modifications: synthetic humanized antibody heavy chain variable region sequence; synthetic humanized antibody light chain variable region sequence

ka (human EphA4): 320000 M⁻¹ s⁻¹
kd (human EphA4): 0.00061 s⁻¹
Kd (human EphA4): 1.9 nM
hEphA1-SEAP-: absorbance at 450 nm, percentage with respect to hEphA4-SEAP-His as 100% (human EphA1): 6.5%
B11: 160 (antibody, V domains shown)
VH: B1 VH with V2I, Q62D, G63D, T65K
VL: B1 VL with K45Q, S80P
modifications: synthetic humanized antibody heavy chain variable region sequence; synthetic humanized antibody light chain variable region sequence

ka (human EphA4): 320000 M⁻¹ s⁻¹
kd (human EphA4): 0.00053 s⁻¹
Kd (human EphA4): 1.7 nM
hEphA1-SEAP-: absorbance at 450 nm, percentage with respect to hEphA4-SEAP-His as 100% (human EphA1): 7.1%
B6: 151 (antibody, V domains shown)
VH: B1 VH with V2I
VL: B1 VL
modifications: synthetic humanized antibody heavy chain variable region sequence; synthetic humanized antibody light chain variable region sequence

ka (human EphA4): 320000 M⁻¹ s⁻¹
kd (human EphA4): 0.0004 s⁻¹
Kd (human EphA4): 1.3 nM
hEphA1-SEAP-: absorbance at 450 nm, percentage with respect to hEphA4-SEAP-His as 100% (human EphA1): 5.2%
B7: 135 (antibody, V domains shown)
VH: B1 VH with K46E, Q62D, G63D, T65K
VL: EIVMTQSPATLSVSPGERATLSCRASENIYRNLAWYQQKPGQSPRLLIYAATNLADGIPARFSGSGSGTEYTLTISSLQSEDFAVYYCQHFWGTPWTFGQGTKVEIK
modifications: synthetic humanized antibody heavy chain variable region sequence; synthetic humanized antibody light chain variable region sequence

ka (human EphA4): 280000 M⁻¹ s⁻¹
kd (human EphA4): 0.00032 s⁻¹
Kd (human EphA4): 1.2 nM
hEphA1-SEAP-: absorbance at 450 nm, percentage with respect to hEphA4-SEAP-His as 100% (human EphA1): 5.1%
B3: 134 (antibody, V domains shown)
VH: B1 VH
VL: B7 VL
modifications: synthetic humanized antibody heavy chain variable region sequence; synthetic humanized antibody light chain variable region sequence

ka (human EphA4): 270000 M⁻¹ s⁻¹
kd (human EphA4): 0.00031 s⁻¹
Kd (human EphA4): 1.2 nM
hEphA1-SEAP-: absorbance at 450 nm, percentage with respect to hEphA4-SEAP-His as 100% (human EphA1): 4.8%
B5: 132 (antibody, V domains shown)
VH: B1 VH with V2I
VL: B7 VL
modifications: synthetic humanized antibody heavy chain variable region sequence; synthetic humanized antibody light chain variable region sequence

ka (human EphA4): 300000 M⁻¹ s⁻¹
kd (human EphA4): 0.00032 s⁻¹
Kd (human EphA4): 1.1 nM
hEphA1-SEAP-: absorbance at 450 nm, percentage with respect to hEphA4-SEAP-His as 100% (human EphA1): 4.9%
B4: 133 (antibody, V domains shown)
VH: B1 VH with K46E
VL: B7 VL
modifications: synthetic humanized antibody heavy chain variable region sequence; synthetic humanized antibody light chain variable region sequence
